Results from US20210062216.

Molecular target: T1, Myc:SlRin4-3 (pGWB518, N-terminal Myc tag)
T1 chain: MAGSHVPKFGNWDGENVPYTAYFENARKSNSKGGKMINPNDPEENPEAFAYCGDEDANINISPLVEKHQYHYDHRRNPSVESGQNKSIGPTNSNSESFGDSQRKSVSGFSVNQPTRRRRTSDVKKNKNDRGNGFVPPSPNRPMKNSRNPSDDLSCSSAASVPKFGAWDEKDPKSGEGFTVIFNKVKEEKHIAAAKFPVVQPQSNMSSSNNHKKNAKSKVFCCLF

B1: AvrRpt2:Myc (avrRpt2 of Pseudomonas syringae pv. tomato NY15125 in pGWB417, C-terminal Myc tag) (protein)
chain: MKIAPVAINHSPLSREVPSHAAPTQAKQTNLQSEAGDLDARKSSASSPETRALLATKTVLGRHKIEVPAFGGWFKKKSSKHETGGSSANADSSSVASDSTEKPLFRLTHVPYVSQGNERMGCWYACARMVGHSVEAGPRLGLPELYEGREGPAGLQDFSDVERFIHNEGLTRVDLPDNERFTHEELGALLYKHGPIIFGWKTPNDSWHMSVLTGVDKETSSITFHDPRQGPDLAMPLDYFNQRLAWQVPHAMLYR
abundance of Rin4 protein, c-Myc immunoblot of N. benthamiana leaves 28 hr after agroinfiltration: a decrease in the abundance of Rin4 protein
